Measured values taken from patent US20250000989A1 (JIANGSU HENGRUI PHARMACEUTICALS, published 2025).

Key:
human Claudin18.2 = human Claudin18.2 (human); assay: cell-based or functional assay
HER3 = HER3 (UniProt P21860 20-1342, limits assumed); assay: cell-based or functional assay

Binder	EC50 (nM), in vitro killing (CTG cell viability) of cells highly expressing NUGC4-claudin18.2 (human Claudin18.2) [nM]	EC50 (nM), in vitro killing (CTG cell viability) of cells lowly expressing NUGC4-claudin18.2 (human Claudin18.2) [nM]	EC50 (nM), in vitro killing (CTG cell viability) of cells moderately expressing NUGC4-claudin18.2 (human Claudin18.2) [nM]	EC50 (nM), killing effect (CTG) on FaDu++ (HER3) [nM]	EC50 (nM), killing effect (CTG) on MCF7++++ (HER3) [nM]	EC50 (nM), killing effect (CTG) on SW620+++ (HER3) [nM]
ADC-22 (antibody, human IgG1, kappa, V domains shown, Asn at position 297 (Eu numbering) carries the remodeled N297 glycan chain from OLS-4, conjugated to the PBD drug linker LD-11; average drug loading y=1.96) VH: EVQLVQSGAEVKKPGASVKVSCKASGYTFTSYWMHWVRQAPGQRLEWMGMIHPNSGSTNYNEKFKGRVTITRDTSASTAYMELSSLRSEDTAVYYCARLKTGNSFDYWGQGTTVTVSS VL: DIVLTQSPDSLAVSLGERATINCKSSQSLLNSGNQKNYLTWYQQKPGQPPKLLIYWASTRESGVPDRFSGSGSGTDFTLTISSLQAEDVAVYYCQNAYTYPFTFGQGTKLEIKR	2.1	11.7	9.8	–	–	–
ADC-20 (antibody, human IgG1, kappa, V domains shown, Asn at position 297 (Eu numbering) carries the remodeled N297 glycan chain from OLS-4, conjugated to the PBD drug linker LD-11; average drug loading y=1.98) VH: QVQLVQSGGGLVQPGRSLRLSCAASGFTFDDYAMHWVRQAPGKGLEWVSGISWNSGSIGYADSVKGRFTISRDNAKNSLYLQMNSLRAEDTALYYCAKEGLPGLDYWGQGTLVTVSS VL: DIQMTQSPSSLSASIGDRATITCRASQHVGTYLNWYQQKPGKTPKLLISGAANLQSGVPSRFSGSGSGTDFTLTISSLQPEDFATYYCQQSYNTPPFSFGQGTKVEIKR	–	–	–	39.9	114	29.3
